Measurements taken from patent US20250320281A1.

Columns and labels:
Experiment in all cases: cell-based or functional assay
[1] = target: HIV-1 92UG024 Env (HIV-1)
[2] = target: HIV-1 93UG077 Env (HIV-1)
[3] = target: HIV-1 MGRM-A-010 Env (HIV-1)
[4] = target: HIV-1 MGRM-C-026 Env (HIV-1)
[5] = target: HIV-1 MGRM-D-001 Env (HIV-1)
[6] = target: HIV-1 92TH021 envelope glycoprotein (Env) on pseudovirus (HIV-1 isolate 92TH021 (clade AE))
[7] = target: HIV-1 92UG024 envelope glycoprotein (Env) on pseudovirus (HIV-1 isolate 92UG024 (clade D))
[8] = target: HIV-1 93IN905 envelope glycoprotein (Env) on pseudovirus (HIV-1 isolate 93IN905 (clade C))
[9] = target: HIV-1 MGRM-C-028 envelope glycoprotein (Env) on pseudovirus (HIV-1 isolate MGRM-C-028 (clade C))
[10] = target: HIV-1 Env of isolate MG RM-D-024 (HIV-1)
[11] = target: HIV-1 Env of isolate MG RM-D-029 (HIV-1)
[12] = target: HIV-1 Env of isolate MGRM-F1-004 (HIV-1)
[13] = target: HIV-1 Env of isolate MGRM-F1-012 (HIV-1)
[14] = target: HIV-1 Env of pseudovirus MGRM-AE-008 (subtype AE) (HIV-1)
[15] = target: HIV-1 Env of pseudovirus MGRM-AG-005 (subtype AG) (HIV-1)
[16] = target: HIV-1 Env of pseudovirus MGRM-AG-012 (subtype AG) (HIV-1)
[17] = target: HIV-1 Env of pseudovirus MGRM-AG-013 (subtype AG) (HIV-1)
[18] = target: HIV-1 Env of isolate MG RM-D-018 (clade D), on pseudovirus (HIV-1)
[19] = target: HIV-1 Env of isolate MG RM-D-022 (clade D), on pseudovirus (HIV-1)
[20] = target: HIV-1 Env of isolate MGRM-Chronic-B-011 (HIV-1)
[21] = target: HIV-1 Env of isolate MGRM-F1-015 (clade F), on pseudovirus (HIV-1)
[22] = target: HIV-1 Env of isolate MGRM-F1-017 (clade F pseudovirus) (HIV-1)
[23] = target: HIV-1 Env of isolate MGRM-F1-021 (clade F pseudovirus) (HIV-1)
[24] = target: HIV-1 Env of isolate MGRM-F1-022 (clade F pseudovirus) (HIV-1)
[25] = target: HIV-1 Env of pseudovirus MGRM-A-002 (subtype A) (HIV-1)
[26] = target: HIV-1 Env of pseudovirus MGRM-A-006 (subtype A) (HIV-1)
[27] = target: HIV-1 Env of isolate CAAN (clade B pseudovirus) (HIV-1)
[28] = target: HIV-1 Env of isolate CAP45 (clade C pseudovirus) (HIV-1)
[29] = target: HIV-1 Env of isolate Du172 (clade C pseudovirus) (HIV-1)
[30] = target: HIV-1 JR-FL Env E168K (HIV-1 JR-FL)
[31] = target: HIV-1 93IN905 Env (pseudovirus) (HIV-1 isolate 93IN905 (clade C))
[32] = target: HIV-1 94UG103 Env (pseudovirus) (HIV-1 isolate 94UG103 (clade A))
[33] = target: HIV-1 JRFL Env (pseudovirus) (HIV-1 isolate JRFL (clade B))
[34] = target: HIV-1 MGRM-D-018 Env (pseudovirus) (HIV-1 isolate MGRM-D-018 (clade D))
[35] = target: HIV-1 NL43 Env (pseudovirus) (HIV-1 isolate NL43 (clade B))

Chain of 1443_C16 (PG16) (TCN-116) (antibody) (VH): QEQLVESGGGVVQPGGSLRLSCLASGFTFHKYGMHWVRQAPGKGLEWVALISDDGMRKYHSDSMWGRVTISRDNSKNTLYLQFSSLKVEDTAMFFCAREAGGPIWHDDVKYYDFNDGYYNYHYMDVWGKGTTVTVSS
Chain of 1443_C16 (PG16) (TCN-116) (antibody) (VL): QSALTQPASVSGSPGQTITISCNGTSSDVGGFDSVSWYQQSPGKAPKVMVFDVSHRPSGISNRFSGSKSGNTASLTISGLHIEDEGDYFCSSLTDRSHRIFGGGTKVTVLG

Substance: 4877_D15 (PGT-122) (antibody)
- Neutralization by PGT-122, IC50 [1]: > 10 µg/mL
- Neutralization by PGT-122, IC80 [1]: > 10 µg/mL
- Neutralization by PGT-122, IC90 [1]: > 10 µg/mL
- Neutralization by PGT-122, IC95 [1]: > 10 µg/mL
- Neutralization by PGT-122, IC50 [2]: 0.191 µg/mL
- Neutralization by PGT-122, IC80 [2]: 0.931 µg/mL
- Neutralization by PGT-122, IC90 [2]: 2.1 µg/mL
- Neutralization by PGT-122, IC95 [2]: 3.88 µg/mL
- Neutralization by PGT-122, IC50 [3]: 1.68 µg/mL
- Neutralization by PGT-122, IC80 [3]: > 10 µg/mL
- Neutralization by PGT-122, IC90 [3]: > 10 µg/mL
- Neutralization by PGT-122, IC95 [3]: > 10 µg/mL
- Neutralization by PGT-122, IC50 [4]: 8.9 ng/mL
- Neutralization by PGT-122, IC80 [4]: 0.037 µg/mL
- Neutralization by PGT-122, IC90 [4]: 0.0849 µg/mL
- Neutralization by PGT-122, IC95 [4]: 0.181 µg/mL
- Neutralization by PGT-122, IC50 [5]: 0.867 µg/mL
- Neutralization by PGT-122, IC80 [5]: 4.48 µg/mL
- Neutralization by PGT-122, IC90 [5]: > 10 µg/mL
- Neutralization by PGT-122, IC95 [5]: > 10 µg/mL

Substance: 1496_C09 (PG9) (TCN-109) (antibody)
- neutralization IC50 [6]: 0.103 µg/mL
- neutralization IC80 [6]: 0.448 µg/mL
- neutralization IC90 [6]: 1.07 µg/mL
- neutralization IC95 [6]: 2.43 µg/mL
- neutralization IC50 [7]: 1.91 µg/mL
- neutralization IC50 [8]: 0.048 µg/mL
- neutralization IC80 [8]: 0.308 µg/mL
- neutralization IC90 [8]: 0.981 µg/mL
- neutralization IC95 [8]: 3.31 µg/mL
- neutralization IC50 [9]: 0.121 µg/mL
- neutralization IC80 [9]: 0.645 µg/mL
- neutralization IC90 [9]: 1.65 µg/mL
- neutralization IC95 [9]: 3.71 µg/mL

Substance: VRC01 (antibody)
- IC50 [10]: 0.366 µg/mL
- IC50 [11]: 3.22 µg/mL
- IC50 [12]: 0.305 µg/mL
- IC50 [13]: 0.488 µg/mL
- IC50, pseudovirus neutralization [14]: 1.72 µg/mL
- IC50, pseudovirus neutralization [15]: 0.091 µg/mL
- IC50, pseudovirus neutralization [16]: 0.031 µg/mL
- IC50, pseudovirus neutralization [17]: 0.197 µg/mL

Substance: PGV04 (antibody)
- IC50 (µg/mL), pseudovirus neutralization [18]: 17.5 µg/mL
- IC50 (µg/mL), pseudovirus neutralization [19]: > 50 µg/mL
- IC50 (µg/mL), pseudovirus neutralization [20]: 0.497 µg/mL
- IC50 (µg/mL), pseudovirus neutralization [21]: 0.179 µg/mL
- IC50 (µg/mL), pseudovirus neutralization [22]: 2.38 µg/mL
- IC50 (µg/mL), pseudovirus neutralization [23]: 0.031 µg/mL
- IC50 (µg/mL), pseudovirus neutralization [24]: 0.072 µg/mL
- IC50, pseudovirus neutralization [25]: 0.093 µg/mL
- IC50, pseudovirus neutralization [26]: 0.244 µg/mL

Substance: 1443_C16 (PG16) (TCN-116) (antibody)
- IC50 (neutralization, TZM-bl pseudovirus assay) [27]: 6.37 µg/mL
- IC50 (neutralization, TZM-bl pseudovirus assay) [28]: < 0.01 µg/mL
- IC50 (neutralization, TZM-bl pseudovirus assay) [29]: < 0.01 µg/mL
- IC50 (ug/ml), pseudovirus neutralization, TZM-bl assay [30]: 0.006 µg/mL

Substance: 5123_A06 (PGT-125) (antibody)
- Neutralization by PGT-125, IC50 [31]: 0.0137 µg/mL
- Neutralization by PGT-125, IC80 [31]: 0.0494 µg/mL
- Neutralization by PGT-125, IC90 [31]: 0.106 µg/mL
- Neutralization by PGT-125, IC95 [31]: 0.216 µg/mL
- Neutralization by PGT-125, IC50 [32]: 0.0124 µg/mL
- Neutralization by PGT-125, IC80 [32]: 0.0373 µg/mL
- Neutralization by PGT-125, IC90 [32]: 0.071 µg/mL
- Neutralization by PGT-125, IC95 [32]: 0.129 µg/mL
- Neutralization by PGT-125, IC50 [33]: 0.0156 µg/mL
- Neutralization by PGT-125, IC80 [33]: 0.0462 µg/mL
- Neutralization by PGT-125, IC90 [33]: 0.0873 µg/mL
- Neutralization by PGT-125, IC95 [33]: 0.157 µg/mL
- Neutralization by PGT-125, IC50 [34]: 0.0382 µg/mL
- Neutralization by PGT-125, IC80 [34]: 0.144 µg/mL
- Neutralization by PGT-125, IC90 [34]: 0.339 µg/mL
- Neutralization by PGT-125, IC95 [34]: 0.892 µg/mL
- Neutralization by PGT-125, IC50 [35]: > 10 µg/mL
- Neutralization by PGT-125, IC80 [35]: > 10 µg/mL
- Neutralization by PGT-125, IC90 [35]: > 10 µg/mL
- Neutralization by PGT-125, IC95 [35]: > 10 µg/mL
